Among the targets are FRMPD3, Q5JV73; GIPC2, Q8TF65; GRID2IP_2, A4D2P6; Inadl_1, Q8NI35.
Common to all, as to test: holdup assay
Holding throughout (set-up): key: below the threshold = too weak to quantify, mostly under pKd 3.1 to 4
What all share (settings): plain residues with an end cap or a label only (N-terminal biotin on a linker: ttds)

In a further experiment the target is T1, APBA1_2, Q02410.
T1 sequence (Q02410 742-832, limits assumed, looked up): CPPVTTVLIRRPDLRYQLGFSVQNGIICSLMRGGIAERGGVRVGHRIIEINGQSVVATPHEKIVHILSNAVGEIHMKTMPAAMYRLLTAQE

Another experiment has as its target T2, ARHGAP21, Q5T5U3.
T2 sequence (Q5T5U3 45-169, limits assumed, looked up): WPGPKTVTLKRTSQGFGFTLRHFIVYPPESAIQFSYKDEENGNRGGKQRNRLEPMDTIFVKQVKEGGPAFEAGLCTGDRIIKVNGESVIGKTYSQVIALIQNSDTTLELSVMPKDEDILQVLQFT

For a further experiment, the target named is T3, ARHGEF11, O15085.
T3 sequence (O15085 42-136, limits assumed, looked up): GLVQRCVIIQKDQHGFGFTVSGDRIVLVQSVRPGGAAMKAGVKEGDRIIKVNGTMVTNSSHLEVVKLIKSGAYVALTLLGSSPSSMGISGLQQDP

Another experiment addresses T4, LRRC7, Q96NW7.
T4 sequence (Q96NW7 1440-1537, limits assumed, looked up): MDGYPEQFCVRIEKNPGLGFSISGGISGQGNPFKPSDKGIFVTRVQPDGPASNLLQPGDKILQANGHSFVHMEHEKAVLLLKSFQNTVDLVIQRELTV

For a further experiment, the target named is T5, PARD3B_1, Q8TEW8.
T5 sequence (Q8TEW8 196-299, limits assumed, looked up): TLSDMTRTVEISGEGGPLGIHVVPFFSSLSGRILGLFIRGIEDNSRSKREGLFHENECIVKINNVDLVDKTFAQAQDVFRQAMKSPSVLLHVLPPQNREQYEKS

In the next experiment the target is T6, PDZD2_2, O15018.
T6 sequence (O15018 329-429, limits assumed, looked up): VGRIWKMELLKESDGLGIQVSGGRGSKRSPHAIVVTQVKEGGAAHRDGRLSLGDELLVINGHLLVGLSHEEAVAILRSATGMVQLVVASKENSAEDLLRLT

The next experiment concerns the target T7, SNTA1, Q13424.
T7 sequence (Q13424 82-180, limits assumed, looked up): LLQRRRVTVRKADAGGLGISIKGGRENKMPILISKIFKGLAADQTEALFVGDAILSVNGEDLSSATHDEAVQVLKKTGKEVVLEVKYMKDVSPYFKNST

The next experiment concerns the target T8, SYNJ2BP, P57105.
T8 sequence (P57105 8-110, limits assumed, looked up): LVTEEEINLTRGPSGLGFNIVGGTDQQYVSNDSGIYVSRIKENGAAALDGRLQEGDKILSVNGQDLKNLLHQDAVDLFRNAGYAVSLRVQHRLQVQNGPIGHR

Drawing on PMC9482650, “Quantitative fragmentomics allow affinity mapping of interactomes” (Nature Communications, 2022), this text covers pKd for 1 molecule.

A word on the pKd: it is the negative decadic logarithm of the Kd, by convention in mol/L.

Sequence of FRMPD3, Q5JV73 (Q5JV73 12-100): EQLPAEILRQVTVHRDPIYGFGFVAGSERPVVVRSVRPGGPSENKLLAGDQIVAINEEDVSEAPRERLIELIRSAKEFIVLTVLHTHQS
Sequence of Inadl_1, Q8NI35 (Q8NI35 113-229): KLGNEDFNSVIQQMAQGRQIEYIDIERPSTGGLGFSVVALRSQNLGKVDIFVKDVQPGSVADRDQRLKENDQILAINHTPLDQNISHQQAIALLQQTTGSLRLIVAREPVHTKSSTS
Sequence of GIPC2, Q8TF65 (Q8TF65 112-203): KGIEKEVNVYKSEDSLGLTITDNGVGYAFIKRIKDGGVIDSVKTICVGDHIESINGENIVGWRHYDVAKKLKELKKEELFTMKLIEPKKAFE
Sequence of GRID2IP_2, A4D2P6 (A4D2P6 272-370): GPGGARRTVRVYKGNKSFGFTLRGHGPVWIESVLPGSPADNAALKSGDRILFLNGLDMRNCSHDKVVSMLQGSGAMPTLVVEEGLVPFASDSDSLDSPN

Consider NDPAWDETNL [ARHGEF7, Q14155], for which the pKd with APBA1_2, Q02410 stood at 3.5; in the experiment with ARHGAP21, Q5T5U3, 3.82; with ARHGEF11, O15085, 3.69; in the experiment with FRMPD3, Q5JV73, 3.65; in the experiment with GIPC2, Q8TF65, 3.61; in the experiment with GRID2IP_2, A4D2P6 it was 3.63. The pKd was determined as 3.51 in the experiment with Inadl_1, Q8NI35; 3.49 with LRRC7, Q96NW7; 3.54 in the experiment with PARD3B_1, Q8TEW8; 3.82 with PDZD2_2, O15018; 3.88 in the experiment with SNTA1, Q13424; 3.8 with SYNJ2BP, P57105.
